experiment: soluble on expression in E. coli; label from the status in PepcDB or PDB records

Sequence | soluble on expression in E. coli
MGSDKIHHHHHHMIFVPNENNDPRVNLAIETYLLTEMPLDEPILLFYINEPSIIIGRNQNTIEEINKEYVDEHGIHVVRRLSGGGAVYHDHGNLNFSFIMPDDGNSFRDFAKVTQPIIQALHDLGVEGAELKGRNDLVINDMKFSGNAMYATNGRMFAHGTLMFDSDIDEVVNTLKVRKDKIESKGIKSVRSRVTNIKPFLSEDKQEMTTEEFRQEILLKIFGVDSIDQVKTYELTDQDWAAINKISEQYYRNWDWNYGKSPAFNLERRHRFPIGSIEMKMNVADGAIQEIKIFGDFFGLGEIKDVEDILTGVKYDKASLEEAIDQIDVKKYFGNIEKEDLLGLIY | not soluble
MSLRFDGKVAIVTGAGGGLGKTYALELAKRGCKVVVNDLGGDRHGTSSSSSMADKVVQEIKSAGGQAVANYDSVEFGDKIVKTAIDNFGRIDIVINNAGILRDVSFLKMTELDWDLIFKVHVKGAYAVTKAAWPYMRDQKYGRIVVTSSNAGVHGNFGQANYAAAKSALIGLSNSLAQEGAKYNILANTLVPTAGSRLTETVMPQNLVDALKPDYVTPLVTYMVHDSFEESGKVFEAGAGWYGTIQYYKSKGKVISHASADDIAKNWSTITNMNGAEYIGTITEQSARLVSILEEHEASSGSSSASSGASSGGAFPSNIRSSALFQEMADGVKADPTAVKTLKSIVLYIITDGKNELGKFTLDFKSASPSVYLGDVKNGEKANATVTVADSDFVDIAAGKLNAQKAFMSGKLKVKGNVMLLQKLQTVLEKAKKSKL | not soluble
STSCVAEEPIKKIAIFGGTHGNELTGVFLVTHWLKNGAEVHRAGLEVKPFITNPRAVEKCTRYIDCDLNRVFDLENLSKEMSEDLPYEVRRAQEINHLFGPKNSDDAYDVVFDLHNTTSNMGCTLILEDSRNDFLIQMFHYIKTCMAPLPCSVYLIEHPSLKYATTRSIAKYPVGIEVGPQPHGVLRADILDQMRRMLKHALDFIQRFNEGKEFPPCAIDVYKIMEKVDYPRNESGDVAAVIHPNLQDQDWKPLHPGDPVFVSLDGKVIPLGGDCTVYPVFVNEAAYYEKKEAFAKTTKLTLNAKSIRSTLH | not soluble
MGSDKIHHHHHHTQTTEKENEFSMSMQIRPRAEYRNGALVPRNEGQKAASFINNRARLSLDYKRSDLEIKMSAQHVGVWGQDPQIDKNGRFILNEAWAKLDFGKGFFAQLGRQTLVYDDERILGGLDWNVAGRYHDALKLGYANKNNEIHAILAFNQNDEKTAGGTYYNSSIGQPYKNMQTVWYHYKADKIPFGASLLFMNLGLETGNQLTQDSHTRYLQTMGTYLTYKNSGWNLDGAFYYQTGKNKDAESVSAFMASATAAYAFNKTWGMVVSFDYLSGNEEGSSKFKAFDPLYGTHHKFYGSMDYFYASAFNKGFAPGLIDGRLGARFRASAKVDMELNYHYFATATEVDFKEDLKKSLGSEVDYQINWSVMKDVKLSAGYSFMLGTKTMDAVKGGNHKSWQDWGWVSVNINPKVFFTKW | not soluble
MGSDKIHHHHHHMGFVSTTFDVLIIGAGPSGASAAVHAARTGLQTLLIDASSFPRDKTCGDGLTPRAIHQLELLGVADQVTGDYFNKGLKLHGFGGSVEAPWPETYFTNKGSAMSRMEFDDLLFRLAKSHEEVTTWENASAQDPILRGNFLEGVVINHAGQEKTVKAKHVIIADGVRSPFGKKLGRQWQRDEVYGIAARAYCETPLSDEPWIHSHVELRDEDGVVQPGYGWIFPLGNGTVNLGCGALSTDTRPAKINTKKLLSFYAGQRRKAWQLGPEHDVASALLPMGGAVSNVAGANWMLIGDSAACVNPLNGEGIDYGLETAAMAVDTLVENPKRDLTLVWPHRLRDAYGETFMLARTAARLLTYPQFLPMAGPLAFRGPLQKAIMPAAARLMGNLITEEDKDLLARGWQAAGSAISWARKGSPLWDSTSSLV | not soluble
MGHHHHHHSHMGAGLSADRRRSLCAREFRKLGFSNSNPAQDLERVPPGLLALDNMLYFSRNAPSAYSRFVLENSSREDKHECPFARGSIQLTVLLCELLRVGEPCSETAQDFSPMFFGQDQSFHELFCVGIQLLNKTWKEMRATQEDFDKVMQVVREQLARTLALKPTSLELFRTKVNALTYGEVLR | soluble
